Literature values, collected in publication PMC6667139.

Molecular target: TGFβ receptor I and II (Homo sapiens) (UniProt P36897)
Sequence (P36897 34-126, chain 1 of 2): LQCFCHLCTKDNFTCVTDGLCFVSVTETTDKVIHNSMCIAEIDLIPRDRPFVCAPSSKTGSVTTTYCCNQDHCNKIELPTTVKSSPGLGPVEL
Sequence (partner, as listed by the source, chain 2 of 2): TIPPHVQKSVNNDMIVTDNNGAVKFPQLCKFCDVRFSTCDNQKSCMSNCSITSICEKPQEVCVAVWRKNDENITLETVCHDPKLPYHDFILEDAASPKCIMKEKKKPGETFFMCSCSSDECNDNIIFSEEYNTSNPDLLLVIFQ

Chain of TGFβ (P01137 279-390): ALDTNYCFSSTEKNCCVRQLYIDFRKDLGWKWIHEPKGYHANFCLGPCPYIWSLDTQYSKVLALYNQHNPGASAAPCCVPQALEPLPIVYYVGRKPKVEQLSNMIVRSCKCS

- Kd: 0.05 nM
Substance: TGFβ (from UniProt P01137)
